Data taken from patent US20240254246A1 (PROMETHEUS BIOSCIENCES, published 2024).
Read-outs that look alike come from different tables or passages of the source.

What was measured:
[1] = target: T1, cynomolgus CD30L expressed on HEK293 cells (cynomolgus, UniProt A0A7N9CVX7 1-234); test: flow cytometry, binding to HEK293-cyCD30L cells
T1 construct: whole, on cells; also called HEK293-cyCD30L; HEK-cyCD30L
T1 sequence: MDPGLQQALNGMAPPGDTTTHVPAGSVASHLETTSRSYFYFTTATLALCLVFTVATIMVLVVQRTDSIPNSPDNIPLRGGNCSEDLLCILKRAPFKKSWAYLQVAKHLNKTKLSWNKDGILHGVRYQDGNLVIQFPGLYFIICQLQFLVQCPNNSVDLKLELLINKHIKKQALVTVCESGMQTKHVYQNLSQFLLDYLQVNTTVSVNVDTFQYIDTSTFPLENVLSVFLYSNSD

[2] = target: T2, recombinant human CD30L (human, UniProt P32971 63-234); test: ELISA, blocking of CD30-Fc on huCD30L; competitor CD30-Fc
T2 construct: Purified recombinant protein of ELISA, BLI, Carterra and KinExA; also called rhCD30L; huCD30L
T2 sequence (looked up): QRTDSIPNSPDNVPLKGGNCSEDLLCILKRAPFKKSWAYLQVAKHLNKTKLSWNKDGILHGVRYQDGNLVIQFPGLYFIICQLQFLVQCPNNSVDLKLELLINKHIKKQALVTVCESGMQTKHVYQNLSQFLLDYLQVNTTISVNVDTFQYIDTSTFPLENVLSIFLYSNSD

[3] = target: T2, recombinant human CD30L; test: ELISA, binding to purified rhCD30L
[4] = target: T3, human CD30L expressed on B16 cells (human, UniProt P32971 1-234); test: flow cytometry, binding to B16-rhCD30L cells
T3 construct: whole, on cells; B16 cell line transfected to express human CD30L; also called B16-huCD30L; B16-rhCD30L
T3 sequence (looked up): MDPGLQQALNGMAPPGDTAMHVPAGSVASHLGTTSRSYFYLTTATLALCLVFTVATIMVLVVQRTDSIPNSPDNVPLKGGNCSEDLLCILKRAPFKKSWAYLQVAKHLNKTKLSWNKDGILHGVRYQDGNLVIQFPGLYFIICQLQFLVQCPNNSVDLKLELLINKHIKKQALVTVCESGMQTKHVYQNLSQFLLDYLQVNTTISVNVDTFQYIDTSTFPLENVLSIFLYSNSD

[5] = target: T4, recombinant cynomolgus CD30L (cynomolgus, UniProt A0A7N9CVX7 63-234); test: ELISA, blocking of CD30-Fc on rcyCD30L; competitor CD30-Fc
T4 construct: Purified recombinant protein; also called rcyCD30L; cyno CD30L
T4 sequence: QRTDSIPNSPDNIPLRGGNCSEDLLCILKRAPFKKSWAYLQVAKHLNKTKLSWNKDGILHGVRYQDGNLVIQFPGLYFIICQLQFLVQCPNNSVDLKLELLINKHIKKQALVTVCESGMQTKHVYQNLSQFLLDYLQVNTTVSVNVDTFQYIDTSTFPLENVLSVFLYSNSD

[6] = target: T3, human CD30L expressed on B16 cells; test: flow cytometry, blocking of CD30-Fc on B16-huCD30L cells; competitor CD30-Fc
[7] = target: T1, cynomolgus CD30L expressed on HEK293 …; test: flow cytometry, blocking of CD30-Fc on HEK293-cyCD30L cells; competitor CD30-Fc
[8] = target: T4, recombinant cynomolgus CD30L; test: ELISA, binding to purified rcyCD30L
[9] = target: T1, cynomolgus CD30L expressed on HEK293 …; test: cell-based or functional assay
[10] = target: T3, human CD30L expressed on B16 cells; test: cell-based or functional assay
[11] = target: T5, recombinant human CD30L protein (human, UniProt P32971 63-234); test: ELISA, CD30 competitor, 1/1000 dil
T5 construct: Recombinant protein used in ELISA; also called huCD30L
T5 sequence (looked up): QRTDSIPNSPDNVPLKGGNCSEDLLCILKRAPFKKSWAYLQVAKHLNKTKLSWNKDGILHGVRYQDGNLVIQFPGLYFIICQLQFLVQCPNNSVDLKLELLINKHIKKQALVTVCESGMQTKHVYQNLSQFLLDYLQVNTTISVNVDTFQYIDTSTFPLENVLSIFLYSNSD

[12] = target: T5, recombinant human CD30L protein; test: ELISA, CD30 competitor, 1/100 dil
[13] = target: T6, recombinant cynomolgus CD30L protein (cynomolgus, UniProt A0A7N9CVX7 63-234); test: ELISA, 1/5000 dil
T6 construct: Recombinant protein used in ELISA; also called cyCD30L
T6 sequence: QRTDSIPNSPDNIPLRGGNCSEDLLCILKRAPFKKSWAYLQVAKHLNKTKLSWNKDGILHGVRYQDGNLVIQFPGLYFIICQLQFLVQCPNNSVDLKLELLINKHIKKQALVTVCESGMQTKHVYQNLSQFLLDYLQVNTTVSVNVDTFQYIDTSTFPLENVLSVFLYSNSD

[14] = target: T7, human CD30L expressed on cells (human, UniProt P32971 1-234); test: flow cytometry, PMA/ionomycin-stimulated primary lymphocytes, Patient 3 (UC, #02-180)
T7 construct: whole, on cells; also called huCD30L; B16-huCD30L cells
T7 sequence (looked up): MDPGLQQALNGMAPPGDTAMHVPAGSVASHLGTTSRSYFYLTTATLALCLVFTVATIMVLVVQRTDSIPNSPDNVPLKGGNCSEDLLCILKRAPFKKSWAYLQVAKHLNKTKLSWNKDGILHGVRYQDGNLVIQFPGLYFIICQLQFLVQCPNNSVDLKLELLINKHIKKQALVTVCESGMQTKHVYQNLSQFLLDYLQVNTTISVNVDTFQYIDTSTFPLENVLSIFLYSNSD
Excerpt: (§1) Peripheral blood mononuclear cells (PBMCs) were isolated from freshly collected whole blood from Ulcerative Colitis (UC) and Crohn's Disease (CD) patients, by conventional density gradient centrifugation. To induce CD30L expression on primary lymphocytes, the isolated cells were stimulated overnight with Phorbol 12-myristate 13-acetate (PMA) and ionomycin. […] After washing to remove unbound antibodies, the cells were fixed in a paraformaldehyde solution and analyzed by flow cytometry to quantify cell surface antibody binding.

[15] = target: T7, human CD30L expressed on cells; test: flow cytometry, PMA/ionomycin-stimulated primary lymphocytes, Patient 4 (CD, #01-051)
Excerpt: as §1

[16] = target: T6, recombinant cynomolgus CD30L protein; test: ELISA, 1/50 dil
[17] = target: T7, human CD30L expressed on cells; test: flow cytometry, PMA/ionomycin-stimulated primary lymphocytes, Patient 2 (UC, #03-041)
Excerpt: as §1

[18] = target: T5, recombinant human CD30L protein; test: ELISA, CD30 competitor, undil
[19] = target: T5, recombinant human CD30L protein; test: ELISA, CD30 competitor, 1/10 dil
[20] = target: T7, human CD30L expressed on cells; test: flow cytometry, PMA/ionomycin-stimulated primary lymphocytes, Patient 1 (CD, #04-021)
Excerpt: as §1

[21] = target: T6, recombinant cynomolgus CD30L protein; test: ELISA, 1/500 dil
[22] = target: T8, cynomolgus CD30L expressed on HEK293 cells (cynomolgus, UniProt A0A7N9CVX7 1-234); test: cell-based or functional assay; remark: listed apart in the source
T8 sequence: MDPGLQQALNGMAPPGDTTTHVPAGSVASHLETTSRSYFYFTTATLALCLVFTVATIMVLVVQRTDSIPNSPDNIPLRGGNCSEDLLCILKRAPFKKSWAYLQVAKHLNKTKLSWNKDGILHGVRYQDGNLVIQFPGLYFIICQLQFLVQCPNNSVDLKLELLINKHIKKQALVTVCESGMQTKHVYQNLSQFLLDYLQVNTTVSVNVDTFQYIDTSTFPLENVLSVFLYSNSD

[23] = target: T7, human CD30L expressed on cells; test: cell-based or functional assay
[24] = target: T7, human CD30L expressed on cells; test: flow cytometry, blocking of huCD30 binding to B16-huCD30L cells
[25] = target: T7, human CD30L expressed on cells; test: flow cytometry, B16-huCD30L cells
Description: Anti-CD30L antibody binding to a CD30L target was determined by flow cytometry, using B16 cells transfected to express human CD30L (compared to non-transfected B16), and using HEK293 cells transfected to express cynomolgus CD30L (compared to non-transfected HEK293). […] Cell surface bound antibodies were detected using a fluorescently labeled anti-human-IgG or anti-mouse IgG, depending on the Fc portion of the antibodies. After incubation with the secondary antibody, the cells were washed, fixed in a paraformaldehyde solution, and analyzed by flow cytometry to detect antibody binding.

[26] = target: T9, human CD30L expressed on cells (human, UniProt P32971 1-234); test: flow cytometry, HuCD30L cells
T9 construct: also called huCD30L; B16-huCD30L
T9 sequence: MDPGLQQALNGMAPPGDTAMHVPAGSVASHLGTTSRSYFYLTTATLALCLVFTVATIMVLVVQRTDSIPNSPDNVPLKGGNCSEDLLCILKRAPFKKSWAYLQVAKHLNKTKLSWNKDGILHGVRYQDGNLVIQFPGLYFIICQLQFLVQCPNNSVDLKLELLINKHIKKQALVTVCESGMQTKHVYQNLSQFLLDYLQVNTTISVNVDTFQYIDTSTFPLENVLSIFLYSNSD

[27] = target: T10, recombinant human CD30L protein (human, UniProt P32971 63-234); test: ELISA, HuCD30L
T10 construct: also called rhCD30L; huCD30L (ELISA)
T10 sequence (looked up): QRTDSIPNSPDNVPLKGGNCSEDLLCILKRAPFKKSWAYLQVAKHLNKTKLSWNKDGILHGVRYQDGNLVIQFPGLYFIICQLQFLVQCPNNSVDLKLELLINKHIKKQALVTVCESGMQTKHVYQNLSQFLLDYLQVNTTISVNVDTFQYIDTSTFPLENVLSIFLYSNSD

B1: anti-CD30L antibody clone 1 (antibody, V domains shown)
VH: QVQLQESGPGLVKPSETLSLTCTVSGGSISGYYWSWIRQPPVKGLEWIGYIFYSGYTKYNPSLKSRVTISVDTSKNQFSLKLSSVTAADTAVYYCARDRWDFDYWGQGALVTVSS
VL: AIQMTQSPSYLSASVGDRVTIACRASQGIRNNLGWYQQKPGKAPKLLIYAESSLQSGVPSRFSGSGSGTDFTLTISSLQPEDFATYYCLQDFNYPYTFGQGTKLEIK
notes: also called clone 1 parental
EC50 [1]: 0.67 nM
IC50 [2]: 2.14 nM
EC50 [3]: 0.05 nM
EC50 [4]: 1.11 nM
IC50 [5]: 1.58 nM
IC50 [6]: 1.06 nM
IC50 [7]: 0.51 nM
EC50 [8]: 0.07 nM
Inhibition of IL-8 release in a dual cell assay (HEK293-cyCD30L cells + K299 cells) IC50 [9]: 0.39 nM
Inhibition of IL-8 release in a dual cell assay (B16-huCD30L cells + K299 cells) IC50 [10]: 1.43 nM

B2: Clone 1 (antibody, V domains shown)
VH: QVQLQESGPGLVKPSETLSLTCTVSGGSISGYYWSWIRQPPVKGLEWIGYIFYSGYTKYNPSLKSRVTISVDTSKNQFSLKLSSVTAADTAVYYCARDRWDFDYWGQGALVTVSS
VL: AIQMTQSPSYLSASVGDRVTIACRASQGIRNNLGWYQQKPGKAPKLLIYAESSLQSGVPSRFSGSGSGTDFTLTISSLQPEDFATYYCLQDFNYPYTFGQGTKLEIK
notes: also called CLONE_1 (parental)
% inhibition [11]: 0%
% inhibition [12]: 34%
Elisa Binding (OD) [13]: 1.16 OD
EC50 [14]: 5.57 nM
EC50 [15]: 4.53 nM
Elisa Binding (OD) [16]: 2.83 OD
EC50 [17]: 5.43 nM
% inhibition [18]: 98%
% inhibition [19]: 98%
EC50 [20]: 7.45 nM
Elisa Binding (OD) [21]: 2.87 OD

B3: anti-CD30L Reference 1 antibody (antibody, human IgG1, lambda, V domains shown)
VH: QVQLQESGPGLVKPSETLSLTCTVSGGSISSYIWSWIRQPAGKGLEWIGRIYASGNTNYNPSLKSRVTISVDTSKNQFSLKLSSMTAADTAVYYCARDYRVAGTYYYYYGLDVWGQGTTVTVSS
VL: QSALTQPASVSGSPGQSITISCTGTSSDVGVYDYVSWYQQHPGKAPKLMIYEVSNRPSGVSNRFSGSKSGNTASLTISGLQTEDEADYYCSSYTSRSTWVFGGGTKLTVLG
Inhibition of IL-8 release in a dual cell assay (HEK293-cyCD30L cells + K299 cells) IC50 [22]: 0.68 nM
Inhibition of IL-8 release in a dual cell assay (B16-huCD30L cells + K299 cells) IC50 [23]: 1.74 nM
EC50 [14]: 3.07 nM
EC50 [15]: 2.82 nM
IC50 [24]: 2.77 nM
EC50 [25]: 1.74 nM
EC50 [17]: 3.12 nM
EC50 [20]: 3.63 nM

B4: anti-CD30L clone 61 (antibody, V domains shown)
VH: QITLKESGPTLVKPTQTLTLTCTFSGFSLSTSGVGVGWIRQPPGKALEWLALIYWNDDKRYSPSLKSRLTITKDTSKNQVVLTMTNMDPVDTATYYCAHRRTTTVTIYYYYMDVWGKGTTVTVSS
VL: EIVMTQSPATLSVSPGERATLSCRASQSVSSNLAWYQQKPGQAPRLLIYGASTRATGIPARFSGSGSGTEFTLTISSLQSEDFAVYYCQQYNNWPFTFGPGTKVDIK
MFI [26]: 362 MFI
OD [27]: 1.42 OD

B5: anti-CD30L clone 59 (antibody, V domains shown)
VH: QVQLVESGGGVVQPGRSLRLSCAASGFTFSIYGMHWVRQAPGKGLEWVAVIWYDGSNKYYVDSVKGRFTISRDNSKNSLYLQMNSLRAEDTAVYYCAREGNLFDYWGQGTLVTVSS
VL: DIQMTQSPSTLSASVGDRVTITCRASQSISSWLAWYQQKPGKAPKLLIYKASSLESGVPSRFSGSGSGTEFTLTISSLKPDDFATYYCQQYKSYYTFGQGTKLEIK
MFI [26]: 9790 MFI
OD [27]: 0.06 OD

B6: anti-CD30L antibody clone 2 (antibody, V domains shown)
VH: EVQLVESGGGLVQPGRSLRLSCAASGFNFDDYAMHWVRQAPGKGLEWVSGISWRSGNIGYAGSVKGRFTISRDNAKNSLYLQMNSLRPEDSALYYCAKDKGIGFNWNYEGFDYWGQGTLVTVSS
VL: DIQMTQSPSSLSASVGDRVTITCRASQGISNHLAWFQQKPGKAPKSLIYAASSLQSGVPSKFSGSGSGTDFTLTISSLQPEDFATYYCQQYVTYPLTFGGGTKVEIK
notes: also called clone 2 parental
EC50 [1]: 0.3 nM
IC50 [2]: 1.35 nM
EC50 [3]: 0.04 nM
EC50 [4]: 0.74 nM
IC50 [5]: 1.28 nM
IC50 [6]: 0.79 nM
IC50 [7]: 0.34 nM
EC50 [8]: 0.05 nM
Inhibition of IL-8 release in a dual cell assay (HEK293-cyCD30L cells + K299 cells) IC50 [9]: 0.31 nM
Inhibition of IL-8 release in a dual cell assay (B16-huCD30L cells + K299 cells) IC50 [10]: 0.81 nM

B7: anti-CD30L clone 60 (antibody, V domains shown)
VH: QVHLVESGGGVVQPGRSLRLSCAASGFAFNIYGMHWVRQAPGKGLEWVAVISYDGSNKVYADSVKGRFSISRDNSKNTLYLQMNSLRAEDTAVYYCAKSGGITMVRGVFDYWGQGTLVTVSS
VL: DIQMTQSPSSLPASVGDRVTITCRASQGIRNDLGWYQQKPGKAPKRLIHAASSLHSGVPSRFSGSGSGTEFTLTISSLQPEDFATYYCLQHNRYPITFGQGTRLEIK
MFI [26]: 1090 MFI
OD [27]: 0.23 OD
